Reference: patent US20210332135A1

These substances were tested against recombinant PD-L1 extracellur domain protein (UniProt Q9NZQ7) (assay: ELISA on recombinant PD-L1 extracellular domain protein).
Sequence of recombinant PD-L1 extracellur domain protein (Q9NZQ7 19-238 limits assumed): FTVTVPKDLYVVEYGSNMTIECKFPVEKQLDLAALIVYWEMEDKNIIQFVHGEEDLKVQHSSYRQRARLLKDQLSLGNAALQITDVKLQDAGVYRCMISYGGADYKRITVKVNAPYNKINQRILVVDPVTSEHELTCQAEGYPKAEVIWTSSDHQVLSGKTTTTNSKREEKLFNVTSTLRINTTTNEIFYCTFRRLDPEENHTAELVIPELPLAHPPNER

EC50	Substance
< 0.0001 µM	HAC, high affinity PD-1 mutant (positive control)
> 0.1 µM	P048 (IgV domain of PD-1, Gene 048, on kappa chain, co-expressed with an empty IgG1 heavy chain) (from UniProt P01857 1-330)
> 0.1 µM	P050 (IgV domain of PD-1, lower affinity L128R mutant, Gene 050, on kappa chain, co-expressed with an empty IgG1 heavy chain) (from UniProt P01857 1-330)

These substances were tested against recombinant CD47 extracellur domain protein (UniProt Q08722) (assay: ELISA on recombinant CD47 extracellular domain protein).
Sequence of recombinant CD47 extracellur domain protein (Q08722 19-139 limits assumed): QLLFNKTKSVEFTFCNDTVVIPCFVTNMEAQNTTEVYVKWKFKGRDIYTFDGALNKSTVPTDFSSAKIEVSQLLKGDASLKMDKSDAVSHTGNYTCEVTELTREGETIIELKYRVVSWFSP

EC50	Substance
< 0.0001 µM	CV1, high affinity SIRPa mutant (positive control)
> 0.1 µM	S007 (binding domain of human SIRPa, Gene 007, on human kappa light chain, co-expressed with an empty IgG1 heavy chain) (from UniProt P01834 1-107; P01857 1-330)
> 0.1 µM	S012 (binding domain of human SIRPa, Gene 012, on human kappa light chain, co-expressed with an empty IgG1 heavy chain) (from UniProt P01834 1-107; P01857 1-330)
